# Data: IntAct's records for PubMed 31515488
# B1: EF-hand calcium-binding domain-containing protein 4B (Homo sapiens), Q9BSW2 (parent)
# chain: MAAPDGRVVSRPQRLGQGSGQGPKGSGACLHPLDSLEQKETQEQTSGQLVMLRKAQEFFQTCDAEGKGFIARKDMQRLHKELPLSLEELEDVFDALDADGNGYLTPQEFTTGFSHFFFSQNNPSQEDAGEQVAQRHEEKVYLSRGDEDLGDMGEDEEAQFRMLMDRLGAQKVLEDESDVKQLWLQLKKEEPHLLSNFEDFLTRIISQLQEAHEEKNELECALKRKIAAYDEEIQHLYEEMEQQIKSEKEQFLLKDTERFQARSQELEQKLLCKEQELEQLTQKQKRLEGQCTALHHDKHETKAENTKLKLTNQELARELERTSWELQDAQQQLESLQQEACKLHQEKEMEVYRVTESLQREKAGLLKQLDFLRERNKHLRDERDICFQKNKAAKANTAASRASWKKRSGSVIGKYVDSRGILRSQSEEEEEVFGIPRRSSLGLSGYPLTEEEPGTGEPGPGGPYPRPLRRIISVEEDPLPQLLDGGFEQPLSKCSEEEEVSDQGVQGQIPEAPPLKLTPTSPRGQPVGKEALCKEESSPSAPDRLFKIVFVGNSAVGKTSFLRRFCEDRFSPGMAATVGIDYRVKTLNVDNSQVALQLWDTAGQERYRCITQQFFRKADGVIVMYDLTDKQSFLSVRRWLSSVEEAVGDRVPVLLLGNKLDNEKEREVPRGLGEQLATENNLIFYECSAYSGHNTKESLLHLARFLKEQEDTVREDTIQVGHPAKKKSCCG
# partner: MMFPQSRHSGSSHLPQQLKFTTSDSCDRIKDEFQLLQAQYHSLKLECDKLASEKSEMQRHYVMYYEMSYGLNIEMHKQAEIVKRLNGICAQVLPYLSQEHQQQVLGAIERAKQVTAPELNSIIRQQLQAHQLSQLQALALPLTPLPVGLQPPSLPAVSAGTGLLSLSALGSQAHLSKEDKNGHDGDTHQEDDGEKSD
# B2: Tuftelin-interacting protein 11 (Homo sapiens), Q9UBB9 (parent)
# chain: MSLSHLYRDGEGRIDDDDDERENFEITDWDLQNEFNPNRQRHWQTKEEATYGVWAERDSDDERPSFGGKRARDYSAPVNFISAGLKKGAAEEAELEDSDDEEKPVKQDDFPKDFGPRKLKTGGNFKPSQKGFAGGTKSFMDFGSWERHTKGIGQKLLQKMGYVPGRGLGKNAQGIINPIEAKQRKGKGAVGAYGSERTTQSMQDFPVVDSEEEAEEEFQKELSQWRKDPSGSKKKPKYSYKTVEELKAKGRISKKLTAPQKELSQVKVIDMTGREQKVYYSYSQISHKHNVPDDGLPLQSQQLPQSGKEAKAPGFALPELEHNLQLLIDLTEQEIIQNDRQLQYERDMVVNLFHELEKMTEVLDHEERVISNLSKVLEMVEECERRMQPDCSNPLTLDECARIFETLQDKYYEEYRMSDRVDLAVAIVYPLMKEYFKEWDPLKDCTYGTEIISKWKSLLENDQLLSHGGQDLSADAFHRLIWEVWMPFVRNIVTQWQPRNCDPMVDFLDSWVHIIPVWILDNILDQLIFPKLQKEVENWNPLTDTVPIHSWIHPWLPLMQARLEPLYSPIRSKLSSALQKWHPSDSSAKLILQPWKDVFTPGSWEAFMVKNIVPKLGMCLGELVINPHQQHMDAFYWVIDWEGMISVSSLVGLLEKHFFPKWLQVLCSWLSNSPNYEEITKWYLGWKSMFSDQVLAHPSVKDKFNEALDIMNRAVSSNVGAYMQPGARENIAYLTHTERRKDFQYEAMQERREAENMAQRGIGVAASSVPMNFKDLIETKAEEHNIVFMPVIGKRHEGKQLYTFGRIVIYIDRGVVFVQGEKTWVPTSLQSLIDMAK
# partner: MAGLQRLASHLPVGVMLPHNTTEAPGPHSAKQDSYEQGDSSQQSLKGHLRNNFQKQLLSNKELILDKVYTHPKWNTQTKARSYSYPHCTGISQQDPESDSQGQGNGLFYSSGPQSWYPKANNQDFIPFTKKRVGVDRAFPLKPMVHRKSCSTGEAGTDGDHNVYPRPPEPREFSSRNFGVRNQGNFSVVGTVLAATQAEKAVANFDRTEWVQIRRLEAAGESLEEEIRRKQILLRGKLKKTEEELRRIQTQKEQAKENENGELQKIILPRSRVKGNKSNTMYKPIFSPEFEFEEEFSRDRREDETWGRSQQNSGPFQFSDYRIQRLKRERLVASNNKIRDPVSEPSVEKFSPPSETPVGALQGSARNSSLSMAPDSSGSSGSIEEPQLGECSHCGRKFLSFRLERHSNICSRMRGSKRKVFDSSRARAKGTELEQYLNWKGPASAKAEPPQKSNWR
# B3: Protein LDOC1 (Homo sapiens), O95751 (parent)
# chain: MVDELVLLLHALLMRHRALSIENSQLMEQLRLLVCERASLLRQVRPPSCPVPFPETFNGESSRLPEFIVQTASYMLVNENRFCNDAMKVAFLISLLTGEAEEWVVPYIEMDSPILGDYRAFLDEMKQCFGWDDDEDDDDEEEEDDY
# partner: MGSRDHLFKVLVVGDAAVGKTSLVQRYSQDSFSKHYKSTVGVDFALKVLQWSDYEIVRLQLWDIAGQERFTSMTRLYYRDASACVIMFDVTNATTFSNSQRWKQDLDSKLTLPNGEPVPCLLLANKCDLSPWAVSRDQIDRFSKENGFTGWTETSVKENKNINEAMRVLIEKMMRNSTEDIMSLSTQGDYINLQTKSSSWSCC
# B4: Beta-taxilin (Homo sapiens), Q8N3L3 (parent)
# chain: MEANHSEQLSAERQSTPPGDSSSLPSHNGLEKEDGQDSPTPVQPPEKEASVHPDISEELNRQLEDIINTYGSAASTAGKEGSARASEQPENAESPDNEDGDCEETTEEAGREPVASGEPPTVKEPVSNKEQKLEKKILKGLGKEANLLMQNLNKLQTPEEKFDFLFKKYAELLDEHRTEQKKLKLLQKKQVQIQKEKDQLQGEHSRAILARSKLESLCRELQRHNKTLKEEALQRAREEEEKRKEITSHFQSTLTDIQGQIEQQSERNMKLCQENTELAEKLKSIIDQYELREEHLDKIFKHRELQQKLVDAKLEQAQEMMKEAEERHKREKEYLLNQAAEWKLQAKVLKEQETVLQAQLTLYSGRFEEFQSTLTKSNEVFATFKQEMDKTTKKMKKLEKDTATWKARFENCNKALLDMIEEKALRAKEYECFVMKIGRLENLCRALQEERNELHKKIRDAEISEKDDQSQHNSDEEPESNVSVDQEIDAEEVNSVQTAVKNLATAFMIIHHPESTPHQSKETQPEIGSSQESADAALKEPEQPPLIPSRDSESPLPPLTPQAEAEGGSDAEPPSKASNSPAGLGAETQCEGLPVGAQADQASWKPEAEASGQAPQAPTEASLQKMEADVPAPACAAEEHVAAMVPACEPSRQPPRAAAEELPVGASAGPQPRNVADTNLEGVD
# partner: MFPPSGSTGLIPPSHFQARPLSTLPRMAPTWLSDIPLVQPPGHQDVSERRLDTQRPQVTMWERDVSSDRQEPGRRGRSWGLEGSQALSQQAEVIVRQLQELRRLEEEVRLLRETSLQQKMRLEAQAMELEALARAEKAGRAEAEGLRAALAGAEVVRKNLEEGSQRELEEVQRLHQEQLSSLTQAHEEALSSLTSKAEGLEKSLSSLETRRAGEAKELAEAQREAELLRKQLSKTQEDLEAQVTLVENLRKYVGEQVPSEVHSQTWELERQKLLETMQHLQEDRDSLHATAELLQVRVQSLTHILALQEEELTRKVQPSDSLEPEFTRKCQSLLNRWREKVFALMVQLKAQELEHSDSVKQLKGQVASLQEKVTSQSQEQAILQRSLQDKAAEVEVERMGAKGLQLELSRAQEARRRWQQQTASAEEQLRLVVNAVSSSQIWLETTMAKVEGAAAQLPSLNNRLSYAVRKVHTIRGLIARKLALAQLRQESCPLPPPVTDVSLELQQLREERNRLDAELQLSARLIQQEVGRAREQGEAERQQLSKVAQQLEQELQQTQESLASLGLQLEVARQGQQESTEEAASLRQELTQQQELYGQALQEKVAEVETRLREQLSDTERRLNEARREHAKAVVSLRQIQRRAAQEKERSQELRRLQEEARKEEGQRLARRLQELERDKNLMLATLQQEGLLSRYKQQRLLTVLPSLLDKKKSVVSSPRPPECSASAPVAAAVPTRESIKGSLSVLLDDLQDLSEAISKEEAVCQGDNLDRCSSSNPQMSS
# B5: E3 ubiquitin-protein ligase CCNB1IP1 (Homo sapiens), Q9NPC3 (parent)
# chain: MSLCEDMLLCNYRKCRIKLSGYAWVTACSHIFCDQHGSGEFSRSPAICPACNSTLSGKLDIVRTELSPSEEYKAMVLAGLRPEIVLDISSRALAFWTYQVHQERLYQEYNFSKAEGHLKQMEKIYTQQIQSKDVELTSMKGEVTSMKKVLEEYKKKFSDISEKLMERNRQYQKLQGLYDSLRLRNITIANHEGTLEPSMIAQSGVLGFPLGNNSKFPLDNTPVRNRGDGDGDFQFRPFFAGSPTAPEPSNSFFSFVSPSRELEQQQVSSRAFKVKRI
# partner: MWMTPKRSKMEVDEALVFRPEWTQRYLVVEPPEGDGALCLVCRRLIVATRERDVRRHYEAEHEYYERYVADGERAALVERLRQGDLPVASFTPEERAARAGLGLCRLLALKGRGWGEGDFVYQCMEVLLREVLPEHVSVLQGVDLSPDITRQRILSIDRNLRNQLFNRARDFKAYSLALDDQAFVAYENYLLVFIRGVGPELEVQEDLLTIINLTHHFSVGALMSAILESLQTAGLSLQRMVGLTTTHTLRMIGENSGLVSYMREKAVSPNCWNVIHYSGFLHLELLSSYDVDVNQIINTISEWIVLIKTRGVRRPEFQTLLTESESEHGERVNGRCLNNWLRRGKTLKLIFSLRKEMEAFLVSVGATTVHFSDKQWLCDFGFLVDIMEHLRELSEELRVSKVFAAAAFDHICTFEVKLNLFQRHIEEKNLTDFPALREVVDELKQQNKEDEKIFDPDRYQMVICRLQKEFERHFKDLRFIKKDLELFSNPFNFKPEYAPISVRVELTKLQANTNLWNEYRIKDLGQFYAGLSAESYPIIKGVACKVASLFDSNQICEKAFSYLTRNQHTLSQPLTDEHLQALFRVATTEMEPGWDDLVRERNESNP
# Variants of: B1
# Details: with tle5_human TLE5, Q08117
row,Variant,effect of a mutation on the interaction
1,H212Q,with no effect

# Variants of: B2
# Details: with zc21c_human ZC2HC1C
row,Variant,effect of a mutation on the interaction
1,R8Q,with no effect
2,S688L,with no effect

# Variants of: B3
# Details: with rab7l_human RAB29, O14966
row,Variant,effect of a mutation on the interaction
1,L12H,disrupting interaction strength

# Variants of: B4
# Details: with cchcr_human CCHCR1, Q8TD31
row,Variant,effect of a mutation on the interaction
1,I527T,with no effect

# Variants of: B5
# Details: with epmip_human EPM2AIP1, Q7L775
row,Variant,effect of a mutation on the interaction
1,N212D,with no effect
